Data published in patent publication US20250295801A1, “CD25 ANTIBODIES, ANTIBODY DRUG CONJUGATES, AND USES THEREOF” (Seagen Inc., priority 2024, published 2025).
Positions count from the first letter of the chain named. Where two headings read alike, the source gives them in different places.

T1: mouse CD25 on Yac-1 mouse lymphoma cells (mouse) (UniProt P01590)
T1 sequence (looked up): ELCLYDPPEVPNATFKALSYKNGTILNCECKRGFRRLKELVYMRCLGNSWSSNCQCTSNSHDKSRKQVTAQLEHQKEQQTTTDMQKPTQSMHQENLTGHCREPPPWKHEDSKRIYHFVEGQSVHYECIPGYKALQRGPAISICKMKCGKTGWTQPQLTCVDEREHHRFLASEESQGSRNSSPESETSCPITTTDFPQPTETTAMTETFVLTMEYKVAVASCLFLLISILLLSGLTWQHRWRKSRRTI

T2: recombinant human CD25 (human, UniProt P01589 22-213, limits assumed, biotinylated in the Octet kinetic assay (site not stated))
T2 construct: Soluble recombinant antigen; It was coated on plates for ELISA and used as bought biotinylated protein for BLI; The ELISA and BLI reagents may be different constructs; also called hCD25; CD25/IL2RA
T2 sequence: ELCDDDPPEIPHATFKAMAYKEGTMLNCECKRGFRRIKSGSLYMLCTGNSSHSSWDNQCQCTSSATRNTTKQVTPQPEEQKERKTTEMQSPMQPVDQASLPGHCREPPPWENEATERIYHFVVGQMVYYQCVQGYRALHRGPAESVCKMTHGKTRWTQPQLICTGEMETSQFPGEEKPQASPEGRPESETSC

T3: human CD25 on CD25 expressing cells (human, UniProt P01589 22-272)
T3 construct: Endogenous CD25 on human lymphoma lines (L540cy, Karpas-299) and on human Treg cells; also called CD25 on L540cy cells; CD25 on Karpas-299 cells
T3 sequence: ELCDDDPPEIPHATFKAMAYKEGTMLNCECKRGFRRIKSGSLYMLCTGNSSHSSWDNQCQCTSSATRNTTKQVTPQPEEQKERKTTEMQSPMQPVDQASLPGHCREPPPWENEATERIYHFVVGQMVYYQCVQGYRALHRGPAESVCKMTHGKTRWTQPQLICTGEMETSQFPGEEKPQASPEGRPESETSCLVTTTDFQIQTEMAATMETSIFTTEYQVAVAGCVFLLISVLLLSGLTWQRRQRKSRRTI

T4: recombinant cynomolgus CD25 (cynomolgus, UniProt H6WS54 22-213)
T4 construct: also called cyno CD25; cynomolgus CD25/IL2RA
T4 sequence: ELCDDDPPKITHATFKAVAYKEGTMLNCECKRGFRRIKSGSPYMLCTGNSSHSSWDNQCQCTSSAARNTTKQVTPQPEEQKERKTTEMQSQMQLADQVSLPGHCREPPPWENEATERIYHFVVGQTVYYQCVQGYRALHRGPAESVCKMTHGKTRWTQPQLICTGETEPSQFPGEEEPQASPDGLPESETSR

B1: PC61 mIgG2a (antibody, from another filing, V domains shown)
VH: EVQLQQSGAELVRPGTSVKLSCKVSGDTITAYYIHFVKQRPGQGLEWIGRIDPEDDSTEYAEKFKNKATITANTSSNTAHLKYSRLTSEDTATYFCTTDNMGATEFVYWGQGTLVTVSS
VL: QVVLTQPKSVSASLESTVKLSCKLNSGNIGSYYMHWYQQREGRSPTNLIYRDDKRPDGAPDRFSGSIDISSNSAFLTINNVQTEDEAMYFCHSYDGRMYIFGGGTKLTV
B2: CD25 antibody SG25Ab-9 (antibody, human IgG1, lambda, V domains shown)
VH: QVQLVQSGAEVKKPGESLKISCKGSGYSSTSYWIGWVRQMPGKGLEWMGIIYPGDSDTRYSPSFQGQVTISADKSISTAYLQWSSLKASDTAMYYCARLGSYYAFDIWGRGTMVTVSS
VL: QSALTQPASVSASPGQSITISCTGTSSDVGAYIYVSWYQQLSGKPPKLILYDVSKRPSGISDRFSGSKSGNTASLTISGLQADDEADYYCSSYTRSSTWVFGGGTQLTVLG
notes: Fully human antibody from a phage scFv library, expressed as IgG1 with a lambda light chain; HC and LC are the entries without signal peptide; also called SG25Ab-9 IgG1; SGAb25-9
B3: SG25Ab-9 variant FH100AN (antibody, V domains shown)
VH: B2 VH with F105N
VL: B2 VL
B4: SG25Ab-9 variant DH101K (antibody, V domains shown)
VH: B2 VH with D106K
VL: B2 VL
B5: SG25Ab-9 variant YH52A (antibody, V domains shown)
VH: B2 VH with Y52A
VL: B2 VL
B6: SG25Ab-9 variant GH96W (antibody, V domains shown)
VH: B2 VH with G100W
VL: B2 VL
B7: SG25Ab-9 variant FH100AA (antibody, V domains shown)
VH: B2 VH with F105A
VL: B2 VL
B8: SG25Ab-9 variant SH55N (antibody, V domains shown)
VH: B2 VH with S56N
VL: B2 VL
B9: SG25Ab-9 variant YH27A (antibody, V domains shown)
VH: B2 VH with Y27A
VL: B2 VL
B10: SG25Ab-9 variant GH53Y (antibody, V domains shown)
VH: B2 VH with G54Y
VL: B2 VL
B11: SG25Ab-9 variant YH32A (antibody, V domains shown)
VH: B2 VH with Y32A
VL: B2 VL
B12: SG25Ab-9 variant SH28W (antibody, V domains shown)
VH: B2 VH with S28W
VL: B2 VL
B13: SG25Ab-9 variant AH100F (antibody, V domains shown)
VH: B2 VH with A104F
VL: B2 VL
B14: SG25Ab-9 variant DH54K (antibody, V domains shown)
VH: B2 VH with D55K
VL: B2 VL
B15: SG25Ab-9 variant DH56K (antibody, V domains shown)
VH: B2 VH with D57K
VL: B2 VL
B16: detuned CD25 antibody SG25Ab-9 YH98A (antibody, human IgG1, lambda, V domains shown)
VH: B2 VH with Y102A
VL: B2 VL
notes: IgG1; Tyr to Ala in CDR-H3 (YH98A); also called SGAb25-9 YH98A
B17: SG25Ab-9 variant YH99A (antibody, V domains shown)
VH: B2 VH with Y103A
VL: B2 VL
notes: Kabat-type numbering, not linear
B18: CD25 antibody SG25Ab-4 (antibody, human IgG1, lambda, V domains shown)
VH: EVQLVQSGAEVKKPGESLKISCKGPEYSFNRYWIAWVRQRPGKGLEWMGIIYPGDSDARYSPTFEGHVTLSADMSLTTAYLQWSSLRASDTAMYYCARLGSYYAFDIWGKGTMVTVSS
VL: QSALTQPASVSGSPGQSITIFCTGTSSDVGGYNYVSWYQQHPGKAPKLMIYDVSKRPSGVSNRFSGSKSGNTASLTISGLQAEDEADYYCSSYTSSSTWVFGGGTQLTVLS
notes: IgG1 format; also called SGAb25-4

Legend:
[1] = biological target: T1, mouse CD25 on Yac-1 mouse lymphoma cells (mouse); assay: saturation binding by flow cytometry on Yac-1 cells
recombinant human CD25 [2] = biological target: T2, recombinant human CD25; assay: saturation binding ELISA on recombinant human CD25
Experimental: (§1) Saturation binding ELISA experiments were performed using soluble recombinant antigens, which were diluted to an appropriate concentration in 50 mM carbonate buffer, pH 9.6. To each well of a 96- or 384-well Maxisorb ELISA plate was added 100 μL of soluble antigen. The plate was sealed and stored at 4° C. overnight. The plate was then washed 3-5 times with PBS-T was buffer (PBS, pH 7.4+0.05% Tween-20). The wells were blocked using 300 μL/well of PBS-T buffer containing BSA for 1 hour at room temperature, then washed 3-5 times with PBS-T. Dilutions of antibodies were prepared in blocking buffer and added to each well in a volume of 100 μL. The antibodies were incubated for 1 hour at room temperature, and then washed 3-5 times with PBS-T. HRP-conjugated secondary antibodies (anti-human Fc) were then added and incubated for 1 hour at room temperature. The plate was washed 3-5 times with PBS-T. The ELISA was developed by adding 100 μL of TMB solution and incubating for 3-15 min at room temperature. To stop the reaction, 100 μL of 1 N sulfuric acid was added to each well. The absorbance at 450 nm was determined using a Spectramax 190 plate reader (Molecular Biosciences) and the data plotted using GraphPad Prism 6.

[3] = biological target: T3, human CD25 on CD25 expressing cells; assay: saturation binding by flow cytometry on L540cy cells (CD25: 55,000 per cell), MFI (Gmean)
Experimental: (§2) For cellular binding analysis by FACS, cells expressing the target protein of interest (2×10⁵) were treated with a serial dilution of indicated antibody in staining buffer (PBS, 5% FBS, 0.2% NaN₃). Samples were incubated for 1 hour on ice and washed twice with ice-cold staining buffer. Cells were resuspended with anti-human IgG-AF488 or IgG-AF647 (JacksonImmunoResearch), 1:200 dilution in staining buffer) for 1 hour on ice. Cells were washed twice with ice cold staining buffer and resuspended in staining buffer. Labeled cells were examined by flow cytometry on an Invitrogen Attune NxT flow cytometer gated to exclude nonviable cells, and the data analyzed using FlowJo10 software. When determined, the KD was calculated using GraphPad Prism 6 using non-linear regression.
(§3) Saturation binding analysis was also performed using high CD25 expressing L540cy cells.

[4] = biological target: T4, recombinant cynomolgus CD25; assay: saturation binding ELISA on recombinant cynomolgus CD25
Experimental: as §1

[5] = biological target: T4, recombinant cynomolgus CD25; assay: saturation binding ELISA on plate-coated recombinant cynomolgus CD25
Experimental: as §1

recombinant human CD25 [6] = biological target: T2, recombinant human CD25; assay: saturation binding ELISA on recombinant human CD25; remark: listed apart in the source
Experimental: as §1

recombinant human CD25 [7] = biological target: T2, recombinant human CD25; assay: BLI kinetics (Octet RED384), biotinylated hCD25 on SAX tips, 1:1 global fit
Experimental: Biotinylated recombinant human CD25 was obtained from Acro Biosystems. Biotinylated hCD25 protein was loaded on SAX (High sensitivity streptavidin) tips at 0.8 nM loading density. Affinity measurements were run using a ForteBio Octet RED384 instrument in the kinetic buffer comprising 1×PBS, 0.1% BSA, 0.02% Tween20, pH 7.4. Association measurements were performed for 300 seconds and disassociation measurements were performed for 900 seconds. Each curve was reference subtracted and modeled using a 1:1 global fit. KD results are reported as kₐ divided by kd.

[8] = biological target: T4, recombinant cynomolgus CD25; assay: ELISA on plate-coated cynomolgus CD25
Experimental: as §1

recombinant human CD25 [9] = biological target: T2, recombinant human CD25; assay: saturation binding ELISA on plate-coated recombinant human CD25
Experimental: as §1

recombinant human CD25 [10] = biological target: T2, recombinant human CD25; assay: saturation binding ELISA on recombinant human CD25; remark: listed apart in the source
Experimental: as §1

[11] = biological target: T3, human CD25 on CD25 expressing cells; assay: saturation binding by flow cytometry on L540cy cells (CD25: 55,000 per cell), MFI (Gmean); remark: listed apart in the source
Experimental: as §2, §3

[12] = biological target: T4, recombinant cynomolgus CD25; assay: saturation binding ELISA on recombinant cynomolgus CD25; EC50 relative to SG25Ab-9
Experimental: as §1

recombinant human CD25 [13] = biological target: T2, recombinant human CD25; assay: saturation binding ELISA on recombinant human CD25; EC50 relative to SG25Ab-9
Experimental: as §1

[14] = biological target: T3, human CD25 on CD25 expressing cells; assay: saturation binding by flow cytometry on Karpas 299 cells (CD25: 123,000 per cell), GeoMean MFI
Experimental: as §2

| Binder | EC50 (read off the curve) [3] [nM] | Kd (recombinant human CD25 [7]) [nM] | koff (recombinant human CD25 [7]) [s⁻¹] | kon (recombinant human CD25 [7]) [M⁻¹ s⁻¹] | also measured |
| --- | --- | --- | --- | --- | --- |
| B1 | – | – | – | – | Kd [1]: 0.7 nM |
| B2 | ~0.8 | 0.1 | 2.7e-05 | 210000 | EC50 (recombinant human CD25 [2]): 0.1 nM; EC50 [4]: 0.25 nM; EC50 (read off the curve) [5]: 0.1 to 0.2 nM; EC50 (read off the curve) (recombinant human CD25 [6]): 0.1 to 0.2 nM; EC50 (read off the curve) [8]: 0.1 to 0.2 nM; EC50 (read off the curve) (recombinant human CD25 [9]): 0.1 to 0.2 nM; EC50 (read off the curve) (recombinant human CD25 [10]): 0.1 to 0.2 nM; EC50 (read off the curve) [11]: ~1 nM |
| B3 | – | 0.3 | 5.7e-05 | 200000 | EC50 (read off the curve) (recombinant human CD25 [10]): ~0.3 nM; EC50 (read off the curve) [11]: 1 to 2 nM |
| B4 | – | 0.2 | 0.0001 | 420000 | EC50 (read off the curve) (recombinant human CD25 [10]): ~0.2 nM; EC50 (read off the curve) [11]: ~1 nM |
| B5 | ~4 | 1.3 | 0.001 | 780000 | – |
| B6 | – | 0.5 | 0.001 | 1.9e+06 | – |
| B7 | – | 0.6 | 0.00017 | 290000 | EC50 (read off the curve) (recombinant human CD25 [10]): ~0.8 nM; EC50 (read off the curve) [11]: 1 to 2 nM |
| B8 | ~0.9 | 0.1 | 2.8e-05 | 220000 | EC50 (read off the curve) (recombinant human CD25 [6]): ~0.2 nM |
| B9 | ~0.9 | 0.1 | 2.6e-05 | 240000 | EC50 (read off the curve) (recombinant human CD25 [6]): ~0.2 nM |
| B10 | 1 to 2 | 0.1 | 8.1e-05 | 1.6e+06 | EC50 (read off the curve) (recombinant human CD25 [6]): ~0.2 nM |
| B11 | ~5 | 0.8 | 0.00023 | 300000 | – |
| B12 | ~0.9 | 0.1 | 3.8e-05 | 300000 | EC50 (read off the curve) (recombinant human CD25 [6]): ~0.2 nM |
| B13 | – | 3.9 | 0.0012 | 310000 | – |
| B14 | – | 24.2 | 0.0079 | 330000 | – |
| B15 | – | 151 | 0.004 | 26000 | – |
| B16 | – | 14 | 0.0043 | 310000 | Fold Change [12]: ~950; Fold Change (recombinant human CD25 [13]): ~1160; EC50 (recombinant human CD25 [2]): ~116 nM; EC50 [4]: ~238 nM |
| B17 | – | 21.5 | 0.0085 | 390000 | – |
| B18 | – | – | – | – | binding result [14]: binds; EC50 (read off the curve) [8]: ~0.1 nM |
